# Measured values as given in paper PMC4899725, “The transcriptional regulator GalR self-assembles to form highly regular tubular structures” (Scientific Reports, 2016).
# Legend:
# [1] = molecular target: the molecule itself; experiment: light scattering; 2 uM GalR diluted from a stock in 1 M NaCl into 50 mM TrisCl pH 8 with 78-1000 mM NaCl (or 25-700 mM Na2SO4 with 78 mM NaCl); 365 nm, stirring, room temperature; dimers to aggregates at low ionic strength
# [2] = molecular target: the molecule itself; experiment: negative staining transmission electron microscopy; 3.8 uM GalR, 50 mM Tris:Cl pH 8, 250 mM NaCl unless otherwise stated (GalR^N48I: 150 mM NaCl); flash-frozen, stained with 1% phosphotungstic acid; dimers to ordered aggregates
# [3] = molecular target: the molecule itself; experiment: dynamic light scattering; 6.4 uM GalR^T322R, 20 °C, 250 mM NaCl; monomers to dimer
protein,measurement,setting,value
"Gal repressor GalR, wild type (GalR^WT), hexahistidine-tagged (natural protein, Escherichia coli, UniProt P03024 1-343, looked up, GalR, the Gal repressor of Escherichia coli; 37 kDa subunit) MATIKDVARLAGVSVATVSRVINNSPKASEASRLAVHSAMESLSYHPNANARALAQQTTETVGLVVGDVSDPFFGAMVKAVEQVAYHTGNFLLIGNGYHNEQKERQAIEQLIRHRCAALVVHAKMIPDADLASLMKQMPGMVLINRILPGFENRCIALDDRYGAWLATRHLIQQGHTRIGYLCSNHSISDAEDRLQGYYDALAESGIAANDRLVTFGEPDESGGEQAMTELLGRGRNFTAVACYNDSMAAGAMGVLNDNGIDVPGEISLIGFDDVLVSRYVRPRLTTVRYPIVTMATQAAELALALADNRPLPEITNVFSPTLVRRHSVSTPSLEASHHATSD",binding result,[1],binds
"GalR^N48I, hexahistidine-tagged (natural protein, Escherichia coli, UniProt P03024 1-343, looked up, GalR of Escherichia coli with N48I; source: expressed from vector plasmid pSEM1026 under an L-arabinose inducible promoter, purified) MATIKDVARLAGVSVATVSRVINNSPKASEASRLAVHSAMESLSYHPIANARALAQQTTETVGLVVGDVSDPFFGAMVKAVEQVAYHTGNFLLIGNGYHNEQKERQAIEQLIRHRCAALVVHAKMIPDADLASLMKQMPGMVLINRILPGFENRCIALDDRYGAWLATRHLIQQGHTRIGYLCSNHSISDAEDRLQGYYDALAESGIAANDRLVTFGEPDESGGEQAMTELLGRGRNFTAVACYNDSMAAGAMGVLNDNGIDVPGEISLIGFDDVLVSRYVRPRLTTVRYPIVTMATQAAELALALADNRPLPEITNVFSPTLVRRHSVSTPSLEASHHATSD",binding result,[2],binds
"GalR^T322R, hexahistidine-tagged (natural protein, Escherichia coli, UniProt P03024 1-343, looked up, GalR of Escherichia coli with T322R; Tetramer formation is strongly impaired in this mutant (cited); also called non-tetramerizing GalR mutant; source: expressed from vector plasmid pSEM1026 under an L-arabinose inducible promoter, purified) MATIKDVARLAGVSVATVSRVINNSPKASEASRLAVHSAMESLSYHPNANARALAQQTTETVGLVVGDVSDPFFGAMVKAVEQVAYHTGNFLLIGNGYHNEQKERQAIEQLIRHRCAALVVHAKMIPDADLASLMKQMPGMVLINRILPGFENRCIALDDRYGAWLATRHLIQQGHTRIGYLCSNHSISDAEDRLQGYYDALAESGIAANDRLVTFGEPDESGGEQAMTELLGRGRNFTAVACYNDSMAAGAMGVLNDNGIDVPGEISLIGFDDVLVSRYVRPRLTTVRYPIVTMATQAAELALALADNRPLPEITNVFSPRLVRRHSVSTPSLEASHHATSD",binding result,[3],binds
